What was measured:
PdLCry (L-CRY) [1] = biological target: T1, PdLCry (L-CRY) (Platynereis dumerilii, UniProt Z9ZPX6J9J5); test: cryo-EM structure of the complex, […] A; type: binding; settings: dark state, far-red light; pH 8.0; homodimer; near stoichiometric FAD occupancy; non-covalent
T1 construct: full length, N-terminal His6 tag, expressed in Sf9 insect cells (pCoofy27, baculovirus); 565 residues, model 31-556; homodimer in dark, monomer under blue light
T1 sequence (Z9ZPX6J9J5 1-565): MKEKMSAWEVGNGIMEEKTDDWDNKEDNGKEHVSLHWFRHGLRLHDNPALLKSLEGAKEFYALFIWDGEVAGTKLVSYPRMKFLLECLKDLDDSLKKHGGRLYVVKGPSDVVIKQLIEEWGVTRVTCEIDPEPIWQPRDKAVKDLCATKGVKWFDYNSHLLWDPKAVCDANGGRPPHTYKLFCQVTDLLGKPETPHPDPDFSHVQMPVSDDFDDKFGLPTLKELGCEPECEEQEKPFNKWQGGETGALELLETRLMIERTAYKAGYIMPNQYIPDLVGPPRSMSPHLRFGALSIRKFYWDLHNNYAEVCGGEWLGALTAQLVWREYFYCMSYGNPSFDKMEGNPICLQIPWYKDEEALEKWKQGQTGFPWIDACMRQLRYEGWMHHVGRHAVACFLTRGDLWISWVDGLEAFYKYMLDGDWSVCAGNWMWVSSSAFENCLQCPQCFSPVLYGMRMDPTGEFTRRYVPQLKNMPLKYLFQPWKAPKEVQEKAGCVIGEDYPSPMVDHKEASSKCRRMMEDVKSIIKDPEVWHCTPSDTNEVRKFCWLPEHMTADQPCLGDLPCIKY

PdLCry (L-CRY) [2] = biological target: T2, PdLCry (L-CRY) (Platynereis dumerilii, UniProt Z9ZPX6J9J5, Y352A); test: UV/Vis spectroscopy of FAD photoreduction; type: binding; settings: naturalistic sunlight, on ice; pH 8.0; co-purified FAD
T2 construct: full length, N-terminal His6 tag, expressed in Sf9 insect cells (pCoofy27, baculovirus); 565 residues, model 31-556; homodimer in dark, monomer under blue light
T2 sequence (Z9ZPX6J9J5 1-565 Y352A): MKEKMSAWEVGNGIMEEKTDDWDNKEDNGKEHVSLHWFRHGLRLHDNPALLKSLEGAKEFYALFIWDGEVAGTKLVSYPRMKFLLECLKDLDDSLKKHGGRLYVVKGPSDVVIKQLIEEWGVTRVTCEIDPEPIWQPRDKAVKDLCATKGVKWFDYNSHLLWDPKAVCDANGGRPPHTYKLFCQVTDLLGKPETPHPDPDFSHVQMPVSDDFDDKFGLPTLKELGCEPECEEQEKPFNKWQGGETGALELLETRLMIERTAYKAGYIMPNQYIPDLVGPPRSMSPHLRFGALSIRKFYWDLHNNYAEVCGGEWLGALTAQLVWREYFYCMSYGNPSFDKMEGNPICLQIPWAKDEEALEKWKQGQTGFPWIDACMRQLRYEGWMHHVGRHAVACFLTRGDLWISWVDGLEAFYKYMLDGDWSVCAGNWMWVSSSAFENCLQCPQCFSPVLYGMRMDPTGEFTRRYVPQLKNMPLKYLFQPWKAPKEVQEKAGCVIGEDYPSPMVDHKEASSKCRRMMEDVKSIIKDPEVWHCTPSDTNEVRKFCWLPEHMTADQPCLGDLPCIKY

PdLCry (L-CRY) [3] = biological target: T3, PdLCry (L-CRY) (Platynereis dumerilii, UniProt Z9ZPX6J9J5, Y352D); test: UV/Vis spectroscopy of FAD photoreduction; type: binding; settings: naturalistic sunlight, on ice; pH 8.0; co-purified FAD
T3 construct: full length, N-terminal His6 tag, expressed in Sf9 insect cells (pCoofy27, baculovirus); 565 residues, model 31-556; homodimer in dark, monomer under blue light
T3 sequence (Z9ZPX6J9J5 1-565 Y352D): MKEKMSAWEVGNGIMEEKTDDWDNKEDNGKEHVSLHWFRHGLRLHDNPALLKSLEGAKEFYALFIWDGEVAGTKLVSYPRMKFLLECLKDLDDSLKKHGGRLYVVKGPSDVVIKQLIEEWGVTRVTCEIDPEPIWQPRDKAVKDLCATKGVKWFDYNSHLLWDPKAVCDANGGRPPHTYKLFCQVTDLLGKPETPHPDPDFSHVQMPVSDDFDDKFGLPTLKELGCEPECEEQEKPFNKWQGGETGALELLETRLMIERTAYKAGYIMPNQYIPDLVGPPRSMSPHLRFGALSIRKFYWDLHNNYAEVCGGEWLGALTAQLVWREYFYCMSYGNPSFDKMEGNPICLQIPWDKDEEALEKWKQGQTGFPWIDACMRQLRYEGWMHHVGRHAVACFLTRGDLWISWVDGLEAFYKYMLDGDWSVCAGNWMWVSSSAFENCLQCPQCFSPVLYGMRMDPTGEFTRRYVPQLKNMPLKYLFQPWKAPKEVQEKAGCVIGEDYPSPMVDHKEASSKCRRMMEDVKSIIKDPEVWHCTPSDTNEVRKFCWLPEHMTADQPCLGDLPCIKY

[4] = biological target: Platynereis dumerilii L-CRY (PdLCry), wildtype (Platynereis dumerilii); test: SEC; analytical SEC with inline UV/Vis, Superdex 200 Increase 5/150 GL, far-red light (dark) conditions; 7 µL at 5 mg mL^-1; 25 mM Bis-tris propane pH 8.0, 150 mM NaCl, 1 mM TCEP
[5] = biological target: Platynereis dumerilii L-CRY (PdLCry), wildtype (Platynereis dumerilii); test: cryo-EM structure; dark state: vitrified under far-red light; 0.7 mg mL^-1 in 25 mM Bis-tris propane pH 8.0, 150 mM NaCl, 1 mM TCEP, 0.01% fluorinated octyl maltoside; 2D classification and C2 refinement
[6] = biological target: Platynereis dumerilii L-CRY (PdLCry), wildtype (Platynereis dumerilii); test: cryo-EM structure; blue light state: grids illuminated for 30 s with a 455 nm LED, vitrified within less than 5 s; 0.7 mg mL^-1 in 25 mM Bis-tris propane pH 8.0, 150 mM NaCl, 1 mM TCEP; 2D classification, C1 map filtered to 8 Å
PdLCry^Y352A = biological target: T4, PdLCry^Y352A (Platynereis dumerilii); test: SEC; final SEC step of the purification in dark or dim red light (Superdex S200 10/300 GL or HiLoad S200 16/60; 25 mM Bis-tris propane pH 8.0, 150 mM NaCl, 5% glycerol, 1 mM TCEP); settings: both partners purified
T4 chain: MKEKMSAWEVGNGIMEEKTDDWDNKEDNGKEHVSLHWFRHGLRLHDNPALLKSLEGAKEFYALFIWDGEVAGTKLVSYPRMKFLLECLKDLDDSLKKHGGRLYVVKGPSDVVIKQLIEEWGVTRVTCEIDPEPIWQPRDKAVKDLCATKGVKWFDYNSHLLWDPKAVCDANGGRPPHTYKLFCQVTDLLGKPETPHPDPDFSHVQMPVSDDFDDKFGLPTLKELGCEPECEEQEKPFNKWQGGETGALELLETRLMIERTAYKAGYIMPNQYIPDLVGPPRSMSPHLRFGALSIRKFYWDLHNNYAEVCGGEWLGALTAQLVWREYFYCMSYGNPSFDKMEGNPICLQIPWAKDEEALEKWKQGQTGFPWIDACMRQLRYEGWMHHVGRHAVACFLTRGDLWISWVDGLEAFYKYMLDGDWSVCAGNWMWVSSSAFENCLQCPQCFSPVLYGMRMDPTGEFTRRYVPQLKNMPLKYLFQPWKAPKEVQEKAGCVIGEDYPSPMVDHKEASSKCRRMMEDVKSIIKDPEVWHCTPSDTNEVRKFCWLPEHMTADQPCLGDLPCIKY

PdLCry^Y352D = biological target: T5, PdLCry^Y352D (Platynereis dumerilii); test: as above; settings: both partners purified
T5 chain: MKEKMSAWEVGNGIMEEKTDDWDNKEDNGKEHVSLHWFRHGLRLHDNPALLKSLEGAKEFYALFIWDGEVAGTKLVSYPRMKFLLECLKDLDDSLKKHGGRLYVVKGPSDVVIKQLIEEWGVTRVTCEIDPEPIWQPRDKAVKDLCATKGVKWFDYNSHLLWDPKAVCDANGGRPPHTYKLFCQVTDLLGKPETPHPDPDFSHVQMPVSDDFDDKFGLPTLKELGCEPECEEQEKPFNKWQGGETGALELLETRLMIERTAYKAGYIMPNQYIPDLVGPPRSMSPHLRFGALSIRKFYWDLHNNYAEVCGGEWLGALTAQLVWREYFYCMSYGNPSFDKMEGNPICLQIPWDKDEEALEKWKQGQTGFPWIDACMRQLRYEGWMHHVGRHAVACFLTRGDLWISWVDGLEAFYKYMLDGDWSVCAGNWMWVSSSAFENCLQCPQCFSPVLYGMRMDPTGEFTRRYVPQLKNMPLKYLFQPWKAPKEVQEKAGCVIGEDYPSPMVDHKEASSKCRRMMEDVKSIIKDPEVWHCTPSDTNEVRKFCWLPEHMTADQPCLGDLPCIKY

In the case of `Cc1cc2nc3c(=O)[nH]c(=O)nc-3n(C[C@H](O)[C@H](O)[C@H](O)COP(=O)(O)OP(=O)(O)OC[C@H]3O[C@@H](n4cnc5c(N)ncnc54)[C@H](O)[C@@H]3O)c2cc1C` [flavin adenine dinucleotide], the “cryo-EM structure of the complex, 2.6 A” value (PdLCry (L-CRY) [1]) is reported as “We observe a near stochiometric occupancy of the ligand FAD”, the “UV/Vis spectroscopy of FAD photoreduction” value (PdLCry (L-CRY) [2]) is reported as “both mutations lead to a less efficient FAD photoreduction under illumination conditions mimicking naturalistic sunlight” and the “UV/Vis spectroscopy of FAD photoreduction” value (PdLCry (L-CRY) [3]) is reported as “both mutations lead to a less efficient FAD photoreduction under illumination conditions mimicking naturalistic sunlight”.

Molecule “Platynereis dumerilii L-CRY (PdLCry), wildtype (natural protein)” has a stoichiometry N [4] of 2, a percent of the protein present as a dimer [5] of 80% and a stoichiometry N [5] of 2. For the same molecule, the percent of the protein monomeric [6] was over 90%.

B1: PdLCry^Y352A (natural protein)
chain: MKEKMSAWEVGNGIMEEKTDDWDNKEDNGKEHVSLHWFRHGLRLHDNPALLKSLEGAKEFYALFIWDGEVAGTKLVSYPRMKFLLECLKDLDDSLKKHGGRLYVVKGPSDVVIKQLIEEWGVTRVTCEIDPEPIWQPRDKAVKDLCATKGVKWFDYNSHLLWDPKAVCDANGGRPPHTYKLFCQVTDLLGKPETPHPDPDFSHVQMPVSDDFDDKFGLPTLKELGCEPECEEQEKPFNKWQGGETGALELLETRLMIERTAYKAGYIMPNQYIPDLVGPPRSMSPHLRFGALSIRKFYWDLHNNYAEVCGGEWLGALTAQLVWREYFYCMSYGNPSFDKMEGNPICLQIPWAKDEEALEKWKQGQTGFPWIDACMRQLRYEGWMHHVGRHAVACFLTRGDLWISWVDGLEAFYKYMLDGDWSVCAGNWMWVSSSAFENCLQCPQCFSPVLYGMRMDPTGEFTRRYVPQLKNMPLKYLFQPWKAPKEVQEKAGCVIGEDYPSPMVDHKEASSKCRRMMEDVKSIIKDPEVWHCTPSDTNEVRKFCWLPEHMTADQPCLGDLPCIKY
modifications: FAD bound; dimer in dark / FAD bound; dimer in dark
With B1 the “stoichiometry N” value (PdLCry^Y352A) was 2.

B2: PdLCry^Y352D (natural protein)
chain: MKEKMSAWEVGNGIMEEKTDDWDNKEDNGKEHVSLHWFRHGLRLHDNPALLKSLEGAKEFYALFIWDGEVAGTKLVSYPRMKFLLECLKDLDDSLKKHGGRLYVVKGPSDVVIKQLIEEWGVTRVTCEIDPEPIWQPRDKAVKDLCATKGVKWFDYNSHLLWDPKAVCDANGGRPPHTYKLFCQVTDLLGKPETPHPDPDFSHVQMPVSDDFDDKFGLPTLKELGCEPECEEQEKPFNKWQGGETGALELLETRLMIERTAYKAGYIMPNQYIPDLVGPPRSMSPHLRFGALSIRKFYWDLHNNYAEVCGGEWLGALTAQLVWREYFYCMSYGNPSFDKMEGNPICLQIPWDKDEEALEKWKQGQTGFPWIDACMRQLRYEGWMHHVGRHAVACFLTRGDLWISWVDGLEAFYKYMLDGDWSVCAGNWMWVSSSAFENCLQCPQCFSPVLYGMRMDPTGEFTRRYVPQLKNMPLKYLFQPWKAPKEVQEKAGCVIGEDYPSPMVDHKEASSKCRRMMEDVKSIIKDPEVWHCTPSDTNEVRKFCWLPEHMTADQPCLGDLPCIKY
modifications: FAD bound; dimer in dark / FAD bound; dimer in dark
In the case of B2, the “stoichiometry N” value (PdLCry^Y352D) is reported as 2.

From article PMC10616196, “A marine cryptochrome with an inverse photo-oligomerization mechanism” (Nature Communications, 2023)
